Reference: PMC6009577

Molecular target: G4-P351A fragment of DGCR8 (proline at 351 to alanine) (human) (UniProt Q8WYQ5)
Assay: SEC

“G4-P351A fragment of DGCR8 (proline at 351 to alanine) (from UniProt Q8WYQ5 1-773) (domain or fragment)” gave a stoichiometry N of 2.
